This note sets out measurements from PMC1904291.

Assay in all cases: EMSA
For orientation: In EMSA bound probe runs differently from free probe, usually more slowly.

Series [1] concerns the target T1, I-CreI (UniProt P05725 1-163).
T1 sequence: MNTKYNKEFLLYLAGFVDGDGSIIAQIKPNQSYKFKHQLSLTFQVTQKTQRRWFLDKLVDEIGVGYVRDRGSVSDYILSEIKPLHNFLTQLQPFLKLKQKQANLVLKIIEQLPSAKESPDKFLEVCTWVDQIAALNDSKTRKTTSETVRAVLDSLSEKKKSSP

Series [2] deals with T2, I-CreI AM (UniProt P05725 1-163, S138A;K139M).
T2 sequence: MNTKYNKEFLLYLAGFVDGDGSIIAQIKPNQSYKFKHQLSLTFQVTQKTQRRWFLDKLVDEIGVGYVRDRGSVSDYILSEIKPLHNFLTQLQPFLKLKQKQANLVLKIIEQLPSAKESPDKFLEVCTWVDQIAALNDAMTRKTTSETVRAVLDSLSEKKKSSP

Series [3] has as its target T3, I-CreI K139M (UniProt P05725 1-163, K139M).
T3 sequence: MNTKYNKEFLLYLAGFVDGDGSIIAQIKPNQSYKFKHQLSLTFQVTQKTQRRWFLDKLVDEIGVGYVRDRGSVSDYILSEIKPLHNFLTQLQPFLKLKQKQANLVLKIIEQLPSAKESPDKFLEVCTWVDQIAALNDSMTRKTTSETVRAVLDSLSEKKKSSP

In series [4] the target is T4, I-CreI S138A (UniProt P05725 1-163, S138A).
T4 sequence: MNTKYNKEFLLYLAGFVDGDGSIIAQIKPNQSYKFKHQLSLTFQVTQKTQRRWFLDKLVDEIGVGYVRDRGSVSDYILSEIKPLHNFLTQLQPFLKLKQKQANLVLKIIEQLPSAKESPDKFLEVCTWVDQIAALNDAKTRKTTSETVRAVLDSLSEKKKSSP

Series [5] concerns the target T5, I-CreI GG (UniProt P05725 1-163, K142G;T143G).
T5 sequence: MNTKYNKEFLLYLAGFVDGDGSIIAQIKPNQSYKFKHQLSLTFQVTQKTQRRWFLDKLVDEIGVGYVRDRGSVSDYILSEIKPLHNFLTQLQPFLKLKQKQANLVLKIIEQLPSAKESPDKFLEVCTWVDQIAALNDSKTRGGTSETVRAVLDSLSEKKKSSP

Series [6] concerns the target T6, I-CreI Δ1 (UniProt P05725 1-137).
T6 sequence: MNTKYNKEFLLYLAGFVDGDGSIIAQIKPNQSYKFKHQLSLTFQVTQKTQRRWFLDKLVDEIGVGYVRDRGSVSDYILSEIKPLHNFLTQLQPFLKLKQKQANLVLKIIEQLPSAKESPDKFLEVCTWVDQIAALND

B1: 6-FAM I-CreI target duplex (dsDNA)
DNA 1: GCAAAACGTCGTGAGACAGTTTGC
DNA 2: GCAAACTGTCTCACGACGTTTTGC
Broadly, the Kd is the concentration at which binding is half-saturated. As for B1, the Kd in series [1] turned out to be 0.0002 µM; in series [2], 1.24 µM; in series [3] it was 0.11 µM; in series [4] it was 0.25 µM; in series [5], 0.05 µM. Besides, the binding result in series [6] is “no binding”.
